According to the nanobody polyreactivity screen of Harvey et al. (2022):

Test: yeast display, Sf9 membrane polyspecificity reagent, FACS + sequencing; frameworks hold sequencing errors
How it was run: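 Nanobodies from a synthetic yeast display library (Saccharomyces cerevisiae BJ5465), induced 36–48 hours with galactose, were stained 1 hour at 4 °C with 10% biotinylated, detergent-solubilized Sf9 membrane reagent, enriched on streptavidin microbeads, then FACS-sorted. Anti-HA (expression) and streptavidin (reagent binding) fluorescence set low and high (top ~1%) gates. Polyreactivity labels come from the gate of origin. Genes were colony-PCR amplified, MiSeq 2 × 250 sequenced and filtered by CDR length.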

Sequence	polyreactivity (PSR sort gate)
QVQLVESGGGLVQAGGSLRLSCADSGSTFWFYAMGWYRQAPGKERELVAVISNSGSTYYADSVKGRYTISRDNAKNTVSLQMNSLKPEDTAVYYCNKDGGGDSYWYVYWGQGTQVTVSS	low polyreactivity
QVQLVESGGGLVQAGGSLRLSCADSGVIFVGYAMGGYRQAHGKERELVASIDGRVGSTYYADSVKGRFTISRDNAKITVYLQMNSLKPEDTAVYYCAAGGRAVRIYWGYYRTSYDYWGQGTQVTVSS	low polyreactivity
QVQLVESGGGLVQAGGSLRLSCADSGYIFYPYTMGWYRQAPGKEMELDAAITWSGSTYYADSVKGRFTISRDNAKNTVYLQMNSLKPEDTAVYYCAADFDSYDSYTYLQYDYWGQGTQVTVSS	low polyreactivity
QVQLVESGGGLVQAGGSLRLSCADTGLILVLNAMGCYRQAPGKERELVADITSGGSTYYADSVKGRFTISRDNAKNSVYLQMNSLKPEDTAVYYCATDQGGYYENDYWGQGTKVTVSS	low polyreactivity
QVQLVESGGGLVQAGGSLRLSCAESGLILAGYTMGWYRQAPGKESELVAAISDRGGSTYYADSVKGRFTISRDNAKNTVYLQMNSLKPEDTAVYYCNAFVYSYALTPSYAGDYWGQGTQVTVSS	low polyreactivity
QVQLVESGGGLVQAGGSLRLSCAGSGFIFAQNTMGWYRQAPGKERELVAAITRRGGSTYYADSVKGRFTISRDNAKTTVYLQMNSLKPEDTAVYYCARATVGAWRKMYSWGQGTQVTVSS	high polyreactivity
QVQLVESGGGLVQAGGSLRLSCAGSGGIFGSNAMGWYREAPGKERALVAAISWRGGSTYYADSVKGRFTISRDNAKNSVYLQMNSLKPEDTAGYYCAARYRWGYSTSYSYRFHYWGQGTQVTVSS	high polyreactivity
QVQLVESGGGLVQAGGSLRLSCAGSGGPFLDYIGWYRQAPGKEMVLVAAITFSGGSTYYADSVKGRLTISRENAKNTVYVQMNSLKPDDTAVYFCAAGWYDWPKYLLGGYTYYLYDSWRQGTQVTVSS	low polyreactivity
QVQLVESGGGLVQAGGSLRLSCAGSGSTFHPYAMGWYRQAPGKVRELVAAITWGGGSTYYADSVKGRITISRDNAKNTVYLQMNSLKPEDTAVYYCNAYTLYWPDYDYWGQGTQVTVSS	low polyreactivity
QVQLVESGGGLVQAGGSLRLSCAGSGSTFLYYAMGWYRQAPGKERELVAVITYSDGGTYYADSVKGRFTISRDNAKNTVYLEMNSLKPEDTAVYYCAKDYRAYAGHYTWTWHEYGYWGQGTQVTVSS	low polyreactivity
QVQLVESGGGLVQAGGSLRLSCAGSGSTSYNDMGWYRQAPGKEREMGASITSSGDDTYYADSVKGRFTISRDNAKNTVYLQMNSLKPEDTAVYYCAAEDYHRHVGSDFVIDYDYWGQGTQVTVSS	low polyreactivity
QVQLVESGGGLVQAGGSLRLSCAGSGYIFAYNTIGWYRQAPGKERELVAAISRSGGSTYYPDSVKGRFTISRDNAKNTVYLQMNSLKPEDTAVYYCAARYSGYRVGQRSFCYWGQGTQVTVSS	high polyreactivity
QVQLVESGGGLVQAGGSLRLSCAHSGSSFYRYSMRWYIQAPGKERELDAAISTSGGRTYYADSVKGRFSISRDNAKNTVYLQMNSLKPEDTAVYYCAADQYRYYRSTYDYWGQGTQVTVSS	high polyreactivity
QVQLVESGGGLVQAGGSLRLSCAPSGFIFQANAMGWYRQAPGKERELLAAIDDGDSTYADSVKGRFTISRDNAKNTVYLQLNSLKPEDTAVYFCATRRNRSYDYWGQGTQVTVSS	low polyreactivity
QVQLVESGGGLVQAGGSLRLSCAPSGFIYHWNAMGWYRQAPGKERELLAAITWRGTNTYYADSVKGRFTISRDNAKNTVYLQMNRLKPEDTAVYYCAARYVTYYGTFDYWGLGTQVTVSS	low polyreactivity
QVQLVESGGGLVQAGGSLRLSCAPSGFTFGLYAMGWYRQAPGKERELVAAISWSGGRTYYADSVKGRFTISRDNAKNTVYLQMNSLKPEDTAVYYCAAVNKARSEDYGYWGQGTQVTVSS	high polyreactivity

Sequence	polyreactivity (PSR sort gate)
QVQLVESGGGLVQAGGSLRLSCAPSGFTFGSNAMGWYRQAPGKERELVAAITWRGGSTYYADSVKGRFTISRDNAKNTVYLQMNSLKPEDTAVYYCAAVRSASSWQYIWLKYYYWGQGTQVTVSS	high polyreactivity
QVQLVESGGGLVQAGGSLRLSCAPSGFTFLWYAMGWYRQAPGKERELVAGISSDGSTNADSVKGRFTISRDNAKNTVYLQMNSLKPEDTAVYYCDADYSSPWQAVQGDDYWGQGTQVNVSS	low polyreactivity
QVQLVESGGGLVQAGGSLRLSCAPSGFTFRYYAMAWYRQAPGKEREFVAAISWSGGSTYYADSVKGRFTISRDNAKNTVYLQMNSLKPEDTAVYYCAAYYPLWGWGYDYWGQGTQVTVSS	high polyreactivity
QVQLVESGGGLVQAGGSLRLSCAPSGFTFSRYAMGWYRQAPGKERELVAAITRGGGNTYYADSVKGRFTISRDNAKNTVYLQMNSLKPEDTAVYYCNAQVGNFGYRSGGYDYWGQGTQVTVSS	high polyreactivity
QVQLVESGGGLVQAGGSLRLSCAPSGFTIGYYAMGWYRQAPGKEMELVAGISFSGTSTYYADSVKGRFTFSRDNAKNTVYLLMNSLKPEDTAVYYCNKVYYSAASKHKEYWGQGTQVTVSS	high polyreactivity
QVQLVESGGGLVQAGGSLRLSCAPSGFTSWQYAMGWYRPAPGKERELVAAISVSGASTYYADSVKGRFTISRDNAKNTVYLQMNSLKPEDTAVYYCAAAYVRYPTTRYFYWGQGTQVTVSS	high polyreactivity
QVQLVESGGGLVQAGGSLRLSCAPSGGTFWIYAMGWYRQAPGKERELVAGITTSGATTYYADSVKGRFTISRDNAKNTVYLQMNSLKPEDTAVYYCAAVIRPRYYQVRPRYDYWGQGTQVTVSS	low polyreactivity
QVQLVESGGGLVQAGGSLRLSCAPSGGTYIYAIGWYRQAPGKERDLVAVITSRSGSTYYADSVKGRFTISRDNAKNTVYLQMISLKPEDTAVYYCAAYTRVRTDPGTSFGYWGQCTQVTVSS	high polyreactivity
QVQLVESGGGLVQAGGSLRLSCAPSGIIFKGYAMGWSRQAPGKERELVAAISHNADSTYADSVKGRFTISRDNAKNTVYLQMNSLKPEDTAVYYCNADYLYHQTSRGKYYSWGQGTQVTVSS	low polyreactivity
QVQLVESGGGLVQAGGSLRLSCAPSGITFFWKAKGWYRQAPGKERELVAAISSGAGTTYADSVKGRFTISRDNAKNTVYLQMNSLKPEDTAVYFCAARRYRYAYGPYNYWGQGSQVTVSS	low polyreactivity
QVQLVESGGGLVQAGGSLRLSCAPSGITFSHYAMGWYRQAPGKERELVAGITWSGGRTYYADSVKGRFTISRDNAKNTVYLQMNSLKPEDTAVYYCAPIHRTGYDMDYWGLGTQVTVSS	low polyreactivity
QVQLVESGGGLVQAGGSLRLSCAPSGITFTHYVMGWYRQAAGKERELVAAITSGGRTNYADSVKGRFTISRDNAKNTVYLQMNSLIPEDTAVYYCNAVKRVGDYWGRSFDYDYWGQGTKVTVSS	high polyreactivity
QVQLVESGGGLVQAGGSLRLSCAPSGRIFSFNTMVLYRHAPGTEREFVATIRYSGGSTYADSVKGRFTISRDNAKNTVYLQMNSLKPEDTAVYYCAAAWWSYKFNRDFDYWGQGTQVTVSS	low polyreactivity
QVQLVESGGGLVQAGGSLRLSCAPSGRIFSYFAMGWYRQAPGKERELVAAISGNGGSTYYADSVKGRFTISRDNAKNTVYLQMNSLKPEDTAVYYCAADWWSSDWAYLYPYSYDYWGQGTQVTVSS	low polyreactivity
QVQLVESGGGLVQAGGSLRLSCAPSGRIFTEYVMGWYRQAPGKERELVAAAITRGGSTNYADSVKGRFTISRDNAKNTVYLQMISLKPEDTAVYYFNKDDWPFSRQLYTGKYDSWGQGTQVTVSS	low polyreactivity
